According to US20230303690A1 (published 2023):
Read-outs that look alike come from different tables or passages of the source.

T1: human LAG3 expressed on cells (human, UniProt P18627 23-525)
T1 sequence (looked up): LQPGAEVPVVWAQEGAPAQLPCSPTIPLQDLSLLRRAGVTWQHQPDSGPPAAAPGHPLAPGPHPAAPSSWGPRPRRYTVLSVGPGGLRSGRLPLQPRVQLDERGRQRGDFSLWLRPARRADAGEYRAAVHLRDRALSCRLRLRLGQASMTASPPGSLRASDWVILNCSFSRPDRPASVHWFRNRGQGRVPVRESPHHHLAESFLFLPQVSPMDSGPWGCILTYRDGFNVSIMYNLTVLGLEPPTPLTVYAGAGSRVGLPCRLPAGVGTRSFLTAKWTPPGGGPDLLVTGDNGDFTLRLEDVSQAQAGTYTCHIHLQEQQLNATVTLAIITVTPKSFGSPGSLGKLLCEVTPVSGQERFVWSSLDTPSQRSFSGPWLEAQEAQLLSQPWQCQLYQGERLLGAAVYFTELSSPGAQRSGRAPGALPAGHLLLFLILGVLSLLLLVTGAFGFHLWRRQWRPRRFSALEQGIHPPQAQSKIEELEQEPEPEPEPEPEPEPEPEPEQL

T2: LAG3 Protein, Human, Recombinant (His Tag) (Sino Biological Catalog No. 16498-H08H) (human, UniProt P18627 23-450)
T2 construct: Bought protein; also called hLAG3-His; LAG3-His; not shown: His tag
T2 sequence (looked up): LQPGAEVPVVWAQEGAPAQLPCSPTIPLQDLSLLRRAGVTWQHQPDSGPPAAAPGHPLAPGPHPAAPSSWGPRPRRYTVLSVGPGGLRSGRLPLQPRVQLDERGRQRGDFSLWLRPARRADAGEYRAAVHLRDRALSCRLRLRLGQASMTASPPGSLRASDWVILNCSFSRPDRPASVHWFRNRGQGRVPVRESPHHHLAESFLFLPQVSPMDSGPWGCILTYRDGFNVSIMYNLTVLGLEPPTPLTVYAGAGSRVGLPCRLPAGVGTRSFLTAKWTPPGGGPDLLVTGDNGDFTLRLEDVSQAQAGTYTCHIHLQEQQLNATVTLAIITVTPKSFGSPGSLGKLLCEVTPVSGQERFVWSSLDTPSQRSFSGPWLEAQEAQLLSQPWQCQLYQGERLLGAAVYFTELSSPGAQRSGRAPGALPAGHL

B1: sdAb No. 25 (VHH)
VHH: QLQLVESGGGLVQAGGSLRLSCAASGSIESFSFMGWYRQAPGKQRELVAGFTGAASLSFSTYTDAVKGRFTISRDNAKNTVYLQMNSLKPEDTAVYFCNVDPWSQSWPGRYWGQGTQVTVSS
notes: Fc of the tested form not described; also called sdAb 25; sdAb #25; not shown: Fc part implied by anti-human Fc capture and anti-human IgG Fc detection
B2: sdAb No. 27 (VHH)
VHH: QVQLVESGGGLVQPGGSLRLSCAASGFTLDYYAIGWFRQAPGKEREGVSCIRSSDGSTYYADSVKGRFTISSDNTKNTVYLQMNSLKPEDTAVYYCATDRYSDCRGPYENWGQGTQVTVSS
notes: Fc of the tested form not described; also called sdAb 27; not shown: Fc part implied by anti-human Fc capture and anti-human IgG Fc detection
B3: sdAb No. 17 (VHH)
VHH: QLQLVESGGGLVQPGGSLRLSCAASGLTLDGYAIGWFRQAPGKEREGLACISGSDGSTHYLDSVKGRFTISRDNGKNTMALQMNSLQFGDTAIYYCAARRGSCSGSWTYWGQGTQVTVSS
notes: Fc of the tested form not described; also called sdAb 17; not shown: Fc part implied by anti-human Fc capture and anti-human IgG1 Fc detection

How the values were obtained:
[1] = biological target: T1, human LAG3 expressed on cells; assay: cell-based or functional assay
[2] = biological target: T1, human LAG3 expressed on cells; assay: FACS, 293T-hLAG3 cells
Method: 5) The prepared antibody samples were added to the 96-well plate according to the platemap, the cells were resuspended and incubate at 4° C. for 1 hour.
7) 3% BSA/1xPBS was used to dilute Goat polyclonal Secondary Antibody to Human IgG-Fc (DyLight® 650) to the desired concentration (1:200), in which the cells were resuspended and incubated at 4° C. for 1 hour.
9) The cells were resuspended in 200 µl of 3% BSA/1xPBS, and performed flow cytometric testing by Shsti Biotech Inc.

[3] = biological target: T2, LAG3 Protein, Human, Recombinant (His …); assay: ELISA, coated hLAG3-His
Method: (§1) Plates were coated with 100 µL per well of Coating Solution, and then covered, and incubated overnight (12-18 hours) at 2-8° C. The wells were aspirated and washed 1 time with >200 µL of Wash buffer per well, inverted and tapped on absorbent paper to remove excess liquid. The plates were blocked with 200 µL per well with Blocking buffer (1×PBS+4% milk) for 1 hour at room temperature, aspirated, inverted, and tapped on absorbent paper to remove excess liquid. Standards and sample dilutions were prepared in Blocking buffer. 100 µL of standards (in duplicate) and samples were pipetted into designated wells. After incubation for 1 hour at room temperature with gentle continual shaking (~500 rpm), the wells were aspirate and washed 3 times with >200 µL of Wash buffer per well, inverted and tapped on absorbent paper to remove excess liquid.
(§2) The primary antibody solution was diluted with Blocking buffer. See Table 14 for recommended primary antibody dilution. 100 µL of the primary antibody solution was added into each well and incubated for 2 hours at room temperature with gentle continual shaking (~500 rpm). The wells were aspirated and washed 3 times with >200 µL of Wash buffer per well, inverted and tapped on absorbent paper to remove excess liquid. The working solution of secondary antibody was made with Blocking buffer by diluting the secondary antibody by 2,500 times. 100 µL of secondary antibody working solution was added into each well and incubated for 30 minutes at room temperature. The wells were aspirated and washed 5 times with >200 µL of Wash buffer per well, inverted and tapped on absorbent paper to remove excess liquid. 100 µL of TMB substrate solution (Biopanda, TMB-S-004) was added to each well and incubated for 30 minutes at room temperature. 100 µL of Stop solution (Solarbio, C1058) was added to each well. Absorbance at 450 nm was measured within 30 minutes of adding Stop solution. Results were calculated using a log-log or 4-parameter curve fit.

[4] = biological target: T2, LAG3 Protein, Human, Recombinant (His …); assay: ELISA, coated hLAG3-His; remark: listed apart in the source
Method: as §1
as §2, with “well.” for “well. Absorbance at 450 nm was measured within 30 minutes of adding Stop solution. Results were calculated using a log-log or 4-parameter curve fit.”

Binder | IL-2, % of BMS, at 0.005080526 ug/mL [1] | IL-2, % of BMS, at 0.015241579 ug/mL [1] | IL-2, % of BMS, at 0.045724737 ug/mL [1] | IL-2, % of BMS, at 0.137174211 ug/mL [1] | IL-2, % of BMS, at 0.411522634 ug/mL [1] | IL-2, % of BMS, at 1.234567901 ug/mL [1] | IL-2, % of BMS, at 3.703703704 ug/mL [1] | IL-2, % of BMS, at 11.11111111 ug/mL [1] | IL-2, % of BMS, at 33.33333333 ug/mL [1] | IL-2, % of BMS, at 100 ug/mL [1] | EC50 [2] | FACS signal at 0.061 nM [2] | FACS signal at 0.1829 nM [2] | FACS signal at 0.5487 nM [2] | FACS signal at 1.6461 nM [2] | FACS signal at 4.9383 nM [2] | FACS signal at 14.815 nM [2] | FACS signal at 44.445 nM [2] | FACS signal at 133.335 nM [2] | EC50 [3] | other results
B1 | 3.24% | -0.59% | 8.03% | 2.39% | 9.2% | 25.1% | 30.6% | 34.1% | 39.8% | 53.7% | 1.48 nM | 99.2 | 247 | 618 | 1410 | 2000 | 2280 | 2540 | 2580 | 3.45 nM | OD450 at 0.061 nM [3]: 0.037; OD450 at 0.1829 nM [3]: 0.042; OD450 at 0.5487 nM [3]: 0.06; OD450 at 1.6461 nM [3]: 0.233; OD450 at 4.9383 nM [3]: 0.643; OD450 at 14.815 nM [3]: 0.85; OD450 at 44.445 nM [3]: 0.882; OD450 at 133.335 nM [3]: 1.02
B2 | 5.57% | 13.4% | 12.1% | 18% | 27.3% | 36.5% | 43.4% | 50% | 52.9% | 52.8% | 1.77 nM | 163 | 393 | 1010 | 2240 | 3570 | 4130 | 4490 | 4630 | 4.7 nM | EC50 [4]: 3.14 nM; OD450 at 0.004572 ug/ml [4]: 0.039; OD450 at 0.013717 ug/ml [4]: 0.042; OD450 at 0.041152 ug/ml [4]: 0.063; OD450 at 0.123457 ug/ml [4]: 0.331; OD450 at 0.37037 ug/ml [4]: 1.5; OD450 at 1.111111 ug/ml [4]: 1.84; OD450 at 3.333333 ug/ml [4]: 1.77; OD450 at 10 ug/ml [4]: 2.15; OD450 at 0.061 nM [3]: 0.037; OD450 at 0.1829 nM [3]: 0.042; OD450 at 0.5487 nM [3]: 0.059; OD450 at 1.6461 nM [3]: 0.257; OD450 at 4.9383 nM [3]: 1.04; OD450 at 14.815 nM [3]: 1.57; OD450 at 44.445 nM [3]: 1.77; OD450 at 133.335 nM [3]: 1.95
B3 | – | – | – | – | – | – | – | – | – | – | – | – | – | – | – | – | – | – | – | – | EC50 [4]: 2.17 nM
